Experimental findings from publication PMC8545111, “Molecular Basis of the Versatile Regulatory Mechanism of HtrA-Type Protease AlgW from Pseudomonas aeruginosa” (mBio, 2021) are described below.

Substitutions are numbered along the chain they refer to.

What all share (test): cell-based or functional assay
One assay addresses T1, AlgW-K287A (Pseudomonas aeruginosa, UniProt Q9HVX1 30-389, K287A).
T1 sequence: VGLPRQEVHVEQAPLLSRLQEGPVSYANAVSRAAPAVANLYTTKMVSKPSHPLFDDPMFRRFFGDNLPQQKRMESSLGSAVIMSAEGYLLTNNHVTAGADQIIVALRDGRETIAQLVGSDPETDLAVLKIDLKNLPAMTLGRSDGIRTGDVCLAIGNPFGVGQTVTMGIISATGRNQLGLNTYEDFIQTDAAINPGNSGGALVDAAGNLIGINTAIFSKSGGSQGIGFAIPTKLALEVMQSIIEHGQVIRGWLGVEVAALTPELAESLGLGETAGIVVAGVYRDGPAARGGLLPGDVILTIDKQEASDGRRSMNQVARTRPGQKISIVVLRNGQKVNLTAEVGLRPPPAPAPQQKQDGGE

The target of the next assay is T2, AlgW-E151A (Pseudomonas aeruginosa, UniProt Q9HVX1 30-389, E151A).
T2 sequence: T1 sequence with E122A, A258K

In a further assay the target is T3, AlgW-E266A (Pseudomonas aeruginosa, UniProt Q9HVX1 30-389, E266A).
T3 sequence: T1 sequence with E237A, A258K

The next assay deals with T4, AlgW-R279A (Pseudomonas aeruginosa, UniProt Q9HVX1 30-389, R279A).
T4 sequence: T1 sequence with R250A, A258K

Assay [1] deals with T5, soluble AlgW (residues 30 to 389, without the N-terminal transmembrane segments) (Pseudomonas aeruginosa, UniProt Q9HVX1 30-389).
T5 sequence: T1 sequence with A258K

The next assay deals with T6, AlgW-W281A (Pseudomonas aeruginosa, UniProt Q9HVX1 30-389, W281A).
T6 sequence: T1 sequence with W252A, A258K

B1: decapeptide SVRDELRWVF (MucE C-terminal tail) (peptide)
peptide: SVRDELRWVF
notes: C-terminal decapeptide of the periplasmic protein MucE of Pseudomonas aeruginosa; also called C-terminal decapeptide of MucE
In the case of B1, the “half-maximal activation concentration of the peptide activator (cleavage of Abz-VLAG-pNA)” value with AlgW-K287A was found to be 6.53 μM; with AlgW-E151A, 2.99 μM; in the assay with AlgW-E266A, 1.08 μM; with AlgW-R279A it was 2.19 μM; in assay [1], 2.02 μM; in the assay with AlgW-W281A, 1.51 μM. Besides, the entries for the “maximal cleavage activity of peptide-activated AlgW (Abz-VLAG-pNA)” value (with AlgW-K287A; in assay [1]; with AlgW-W281A) were 49.4 μM min^−1, 165 μM min^−1 and 10.3 μM min^−1, respectively.
